From US20150344570A1 (published 2015)

T1: FcγRIIb extracellular domain with C-terminal His tag (human, UniProt P31994 43-217)
T1 construct: extracellular domain; soluble analyte in Biacore; also called FcgRIIb; not shown: His tag at the C terminus
T1 sequence (looked up): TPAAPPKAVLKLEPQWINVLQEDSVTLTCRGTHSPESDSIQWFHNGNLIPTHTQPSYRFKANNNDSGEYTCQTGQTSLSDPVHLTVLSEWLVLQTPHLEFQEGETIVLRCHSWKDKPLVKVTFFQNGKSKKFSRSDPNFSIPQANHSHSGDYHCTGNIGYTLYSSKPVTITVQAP

B1: GpH7-A5/GpH7-B3 variant A330_15Y/GpL16-k0 (antibody, human IgG1, kappa)
heavy 1: not shown
heavy 2: not shown
light: DIVMTQSPLSLPVTPGEPASISCQASESLVHSNRNTYLHWYLQKPGQSPQLLIYKVSNRFSGVPDRFSGSGSGTDFTLKISRVEAEDVGVYYCSQNTHVPPTFGQGTKVEIERTVAAPSVFIFPPSDEQLKSGTASVVCLLNNFYPREAKVQWKVDNALQSGNSQESVTEQDSKDSTYSLSSTLTLSKADYEKHKVYACEVTHQGLSSPVTKSFNRGEC
notes: change in the GpH7-B3 H chain only; also called He Ab
B2: GpH7-A5/GpH7-B3 variant S324_08L/GpL16-k0 (antibody, human IgG1, kappa)
heavy 1: not shown
heavy 2: not shown
light: B1 light
notes: as for B1
B3: GpH7-A5/GpH7-B3 variant E333_06M/GpL16-k0 (antibody, human IgG1, kappa)
heavy 1: not shown
heavy 2: not shown
light: B1 light
notes: as for B1
B4: GpH7-A5/GpH7-B3 variant E333_09D/GpL16-k0 (antibody, human IgG1, kappa)
heavy 1: not shown
heavy 2: not shown
light: B1 light
notes: as for B1
B5: GpH7-A5/GpH7-B3 variant S324_15Y/GpL16-k0 (antibody, human IgG1, kappa)
heavy 1: not shown
heavy 2: not shown
light: B1 light
notes: as for B1
B6: GpH7-A5/GpH7-B3 variant E333_07I/GpL16-k0 (antibody, human IgG1, kappa)
heavy 1: not shown
heavy 2: not shown
light: B1 light
notes: as for B1
B7: GpH7-A5/GpH7-B3 variant A327_13S/GpL16-k0 (antibody, human IgG1, kappa)
heavy 1: not shown
heavy 2: not shown
light: B1 light
notes: as for B1
B8: GpH7-A5/GpH7-B3 variant E333_11K/GpL16-k0 (antibody, human IgG1, kappa)
heavy 1: not shown
heavy 2: not shown
light: B1 light
notes: as for B1
B9: GpH7-A5/GpH7-B3 variant A330_07I/GpL16-k0 (antibody, human IgG1, kappa)
heavy 1: not shown
heavy 2: not shown
light: B1 light
notes: as for B1
B10: GpH7-A5/GpH7-B3 variant I336_01G/GpL16-k0 (antibody, human IgG1, kappa)
heavy 1: not shown
heavy 2: not shown
light: B1 light
notes: as for B1
B11: GpH7-A5/GpH7-B3 variant A330_19Q/GpL16-k0 (antibody, human IgG1, kappa)
heavy 1: not shown
heavy 2: not shown
light: B1 light
notes: as for B1
B12: GpH7-A5/GpH7-B3 variant S324_18N/GpL16-k0 (antibody, human IgG1, kappa)
heavy 1: not shown
heavy 2: not shown
light: B1 light
notes: as for B1
B13: GpH7-A5/GpH7-B3 variant A330_14T/GpL16-k0 (antibody, human IgG1, kappa)
heavy 1: not shown
heavy 2: not shown
light: B1 light
notes: as for B1
B14: GpH7-A5/GpH7-B3 variant A327_06M/GpL16-k0 (antibody, human IgG1, kappa)
heavy 1: not shown
heavy 2: not shown
light: B1 light
notes: as for B1
B15: GpH7-A5/GpH7-B3 variant A330_09D/GpL16-k0 (antibody, human IgG1, kappa)
heavy 1: not shown
heavy 2: not shown
light: B1 light
notes: as for B1
B16: GpH7-A5/GpH7-B3 variant A330_06M/GpL16-k0 (antibody, human IgG1, kappa)
heavy 1: not shown
heavy 2: not shown
light: B1 light
notes: as for B1
B17: GpH7-A5/GpH7-B3 variant E333_16H/GpL16-k0 (antibody, human IgG1, kappa)
heavy 1: not shown
heavy 2: not shown
light: B1 light
notes: as for B1
B18: GpH7-A5/GpH7-B3 variant E333_03V/GpL16-k0 (antibody, human IgG1, kappa)
heavy 1: not shown
heavy 2: not shown
light: B1 light
notes: as for B1
B19: GpH7-A5/GpH7-B3 variant A330_16H/GpL16-k0 (antibody, human IgG1, kappa)
heavy 1: not shown
heavy 2: not shown
light: B1 light
notes: as for B1
B20: GpH7-A5/GpH7-B3 variant E333_14T/GpL16-k0 (antibody, human IgG1, kappa)
heavy 1: not shown
heavy 2: not shown
light: B1 light
notes: as for B1
B21: GpH7-A5/GpH7-B3 variant I336_02A/GpL16-k0 (antibody, human IgG1, kappa)
heavy 1: not shown
heavy 2: not shown
light: B1 light
notes: as for B1
B22: GpH7-A5/GpH7-B3 variant S324_09D/GpL16-k0 (antibody, human IgG1, kappa)
heavy 1: not shown
heavy 2: not shown
light: B1 light
notes: as for B1
B23: GpH7-A5/GpH7-B3 variant A330_18N/GpL16-k0 (antibody, human IgG1, kappa)
heavy 1: not shown
heavy 2: not shown
light: B1 light
notes: as for B1
B24: GpH7-A5/GpH7-B3 variant S324_10E/GpL16-k0 (antibody, human IgG1, kappa)
heavy 1: not shown
heavy 2: not shown
light: B1 light
notes: as for B1
B25: GpH7-A5/GpH7-B3 variant S324_11K/GpL16-k0 (antibody, human IgG1, kappa)
heavy 1: not shown
heavy 2: not shown
light: B1 light
notes: as for B1

What follows are binders tested against T1, FcγRIIb extracellular domain with … (assay: SPR, binding relative to GpH7-A5/GpH7-B3/GpL16-k0 = 100).

| He/Con_2b | Binder |
| --- | --- |
| 95 % of control | B1 |
| 89.6 % of control | B2 |
| 85.4 % of control | B3 |
| 94.3 % of control | B4 |
| 88.2 % of control | B5 |
| 96.2 % of control | B6 |
| 79.5 % of control | B7 |
| 80.6 % of control | B8 |
| 67.1 % of control | B9 |
| 90.1 % of control | B10 |
| 90.8 % of control | B11 |
| 81.1 % of control | B12 |
| 77.9 % of control | B13 |
| 59.5 % of control | B14 |
| 55.6 % of control | B15 |
| 80.5 % of control | B16 |
| 83.3 % of control | B17 |
| 93.2 % of control | B18 |
| 87.6 % of control | B19 |
| 86.1 % of control | B20 |
| 84.9 % of control | B21 |
| 85.8 % of control | B22 |
| 63.7 % of control | B23 |
| 77.4 % of control | B24 |
| 68.6 % of control | B25 |

The binders below were run against T2, FcγRIa extracellular domain with C-terminal His tag (human, UniProt P12314 16-292) in the same assay as above.
T2 construct: extracellular domain; soluble analyte in Biacore; also called FcgRI; not shown: His tag at the C terminus
T2 sequence (P12314 16-292): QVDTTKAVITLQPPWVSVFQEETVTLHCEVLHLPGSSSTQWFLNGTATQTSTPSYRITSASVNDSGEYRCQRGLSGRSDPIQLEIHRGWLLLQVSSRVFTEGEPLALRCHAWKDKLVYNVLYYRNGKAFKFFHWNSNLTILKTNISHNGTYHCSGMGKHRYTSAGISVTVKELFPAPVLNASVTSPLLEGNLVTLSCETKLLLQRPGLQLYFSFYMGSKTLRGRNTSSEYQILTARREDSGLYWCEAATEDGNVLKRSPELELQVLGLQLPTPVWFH

| He/Con_1a | Binder |
| --- | --- |
| 105 % of control | B1 |
| 103 % of control | B2 |
| 102 % of control | B3 |
| 104 % of control | B4 |
| 114 % of control | B5 |
| 102 % of control | B6 |
| 102 % of control | B7 |
| 102 % of control | B8 |
| 105 % of control | B9 |
| 109 % of control | B10 |
| 105 % of control | B11 |
| 116 % of control | B12 |
| 105 % of control | B13 |
| 103 % of control | B14 |
| 109 % of control | B15 |
| 105 % of control | B16 |
| 101 % of control | B17 |
| 105 % of control | B18 |
| 106 % of control | B19 |
| 102 % of control | B20 |
| 106 % of control | B21 |
| 104 % of control | B22 |
| 106 % of control | B23 |
| 105 % of control | B24 |
| 102 % of control | B25 |
